According to US20170306037A1 (Novartis, published 2017):
Values belong to the binder of their own block, whether it stands above or below them.

Tests used:
[1] = molecular target: T1, human GITR expressed on cells (human, UniProt Q9Y5U5 27-241); test: cell-based or functional assay
T1 sequence: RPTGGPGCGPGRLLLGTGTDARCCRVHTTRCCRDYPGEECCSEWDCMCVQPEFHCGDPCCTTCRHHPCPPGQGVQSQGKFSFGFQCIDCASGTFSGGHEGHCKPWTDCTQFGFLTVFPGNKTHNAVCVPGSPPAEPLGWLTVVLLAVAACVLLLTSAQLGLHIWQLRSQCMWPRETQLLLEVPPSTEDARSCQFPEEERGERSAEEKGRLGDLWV

[2] = molecular target: T1, human GITR expressed on cells; test: FACS competition on hGITR stable HEK293 cells: ligand titrated first, then 4 nM MAB7 as competitor, PE anti-human detection
Method: The ability of MAB to block ligand binding was assessed using HEK293 NFκB reporter parental cells and hGITR stable cells were used in competition binding assays and FACS analysis. Briefly, harvested cells were plated 1×10⁶ cells per mL, 100 μL per well to a 96 well round bottom FACS plate (Corning), then resuspended in 200 μL of cold FACS buffer (1×PBS+1% FBS-HI+0.1% sodium azide) per well. […] Plates were incubated for 1 hour on ice protected from light, cells washed, then prepared 4 nM isotype control or MAB solutions were prepared and added to appropriate wells at 100 μL per well and plates were incubated for 1 hour on ice protected from light, cells washed, then PE-conjugated goat-anti-human detection antibody (Jackson ImmunoResearch) prepared at 1:100 dilution in FACS buffer was added at 100 μL per well and plates were incubated for 30 minutes on ice protected from light. Cells were washed in FACS buffer then cells were fixed with 100 μL per well of BD CytoFix (BD Biosciences) and incubated for further 15 minutes on ice protected from light.

[3] = molecular target: T2, Recombinant human GITR and human Fc fusion protein (hGITR-hFc) (human, UniProt Q9Y5U5 26-162, limits assumed, biotinylated in the ForteBio Octet assays (sites not given)); test: ForteBio Octet QK, streptavidin biosensors coated with biotinylated hGITR-hFc
T2 construct: also called biotinylated hGITR-hFc; not shown: human Fc
T2 sequence: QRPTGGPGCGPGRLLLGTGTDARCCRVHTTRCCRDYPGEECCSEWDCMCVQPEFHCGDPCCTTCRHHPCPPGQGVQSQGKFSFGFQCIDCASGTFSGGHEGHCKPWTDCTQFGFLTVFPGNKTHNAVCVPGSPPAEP
Text: Human germline residues incorporated into the optimized reference MAB1opFab in FR1 and FR3 are those specified by the PCR primers used to amplify the human V-segment repertoire and thus are present in all members of the Humaneered® Antibody V-region libraries. The optimized reference Fab is constructed to assess whether or not any of the changes to human germline alter the properties of Fab binding.

[4] = molecular target: T3, mouse GITR extracellular domain (mouse, UniProt O35714 20-153); test: ELISA on coated GITR ECD
T3 construct: extracellular domain; also called murine GITR; rodent GITR
T3 sequence (looked up): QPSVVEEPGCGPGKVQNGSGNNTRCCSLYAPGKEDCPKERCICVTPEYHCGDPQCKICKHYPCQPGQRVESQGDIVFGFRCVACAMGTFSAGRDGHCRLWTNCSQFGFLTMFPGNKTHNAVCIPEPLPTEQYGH
Method: (§1) The plate was blocked with a solution of 1% BSA in PBS for one hour at room temperature and then rinsed three times with PBST. The MAB was then diluted to 0.5 μg/mL or 1 μg/mL in PBS and 20 μL was added to each well. The plate was incubated for 1 hour at room temperature and then washed three times with PBST. […] The plate was incubated for 1 hour at room temperature, and then washed six times with PBST. 25 μL of SureBlue TMB (KPL 52-00-02) substrate was added to each well and the plate was incubated for about 10 min at room temperature.

[5] = molecular target: T4, human GITR extracellular domain (hGITR ECD) (human, UniProt Q9Y5U5 26-162); test: ELISA on coated GITR ECD
T4 construct: also called human GITR ECD
T4 sequence: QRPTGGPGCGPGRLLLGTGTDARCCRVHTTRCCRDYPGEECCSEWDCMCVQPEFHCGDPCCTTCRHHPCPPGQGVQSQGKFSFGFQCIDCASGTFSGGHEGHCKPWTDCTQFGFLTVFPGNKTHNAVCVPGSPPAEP
Method: as §1

[6] = molecular target: T2, Recombinant human GITR and human Fc …; test: ForteBio Octet, Fab on human GITR (biotinylated hGITR-hFc sensors per paragraph 356); experiment b
[7] = molecular target: T2, Recombinant human GITR and human Fc …; test: ForteBio Octet, Fab on human GITR (biotinylated hGITR-hFc sensors per paragraph 356); experiment c
[8] = molecular target: T5, human GITR (hGITR), form not stated (human, UniProt Q9Y5U5 26-162, limits assumed); test: Biacore (SPR), IgG
T5 construct: the construct is not described
T5 sequence: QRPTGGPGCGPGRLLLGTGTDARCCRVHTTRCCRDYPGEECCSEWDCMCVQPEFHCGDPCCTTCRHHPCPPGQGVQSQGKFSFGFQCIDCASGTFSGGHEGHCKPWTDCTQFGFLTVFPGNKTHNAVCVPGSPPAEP

[9] = molecular target: cyno GITR (cGITR), form not stated (cynomolgus monkey); test: Biacore (SPR), IgG
[10] = molecular target: T2, Recombinant human GITR and human Fc …; test: ForteBio Octet, Fab on human GITR (biotinylated hGITR-hFc sensors per paragraph 356); experiment a

B1: recombinant human GITR ligand (GITR-L) (ligand, UniProt Q9UNG2 52-177, looked up)
chain: ETAKEPCMAKFGPLPSKWQMASSEPPCVNKVSDWKLEILQNGLYLIYGQVAPNANYNDVAPFEVRLYKNKDMIQTLTNKSKIQNVGGTYELHVGDTIDLIFNSEHQVLKNNTYWGIILLANPQFIS
- EC50, NFκB-luciferase reporter in 293 cells overexpressing human GITR [1]: ~65 nM
- IC50 (read off the curve) [2]: ~0.2 molar ratio of Human GITR Ligand to MAB7 (MAB7 at 4 nM)

B2: MAB1rFab (reference Fab of MAB1) (Fab, V domains shown)
VH: QVQLKESGPGLVAPSQSLSITCTVSGFSLRSYGVDWVRQPPGKGLEWLGVIWGGGGTNYNSALMAKLSISKDKSKSQVFLKMNSLQTDDTAMYYCAKHAYGHDGGFAMDYWGQGTSVTVSS
VL: EIVMTQSPKSMSMSVGERVTLSCKASENVDTFVSWYQQKPDHSPKLLIYGASNRYTGVPDRFTGSGSATDFTLTISSVQAEDLADYHCGQSYSYPFTFGSGTKLEIK
- binding result [3]: binds

B4: MAB6 (IgG1 kappa) (antibody, V domains shown)
VH: EVQLVESGGGLVQSGGSLRLSCAASGFSLSSYGVDWVRQAPGKGLEWLGVIWGGGGTYYTSSLMARFTISRDNSKNTLYLQMNSLRAEDTAVYYCAKHAYGHDGGFAMDYWGQGTLVTVSS
VL: EIVMTQSPATLSVSPGERATLSCRASESVSSNVAWYQQRPGQAPRLLIYGASNRATGIPARFSGSGSGTDFTLTISRLEPEDFAVYYCGQSYSYPFTFGQGTKLEIKR
- binding result [4]: no binding (tested: 0.5 µg/mL or 1 µg/mL)

B5: MAB5 Fab (human full-chain Fab) (Fab, V domains shown)
VH: EVQLVESGGGLVQSGGSLRLSCAASGFSLSSYGVDWVRQAPGKGLEWLGVIWGGGGTYYTSSLMGRFTISRDNSKNTLYLQMNSLRAEDTAVYYCAKHAYGHDGGFAMDYWGQGTLVTVSS
VL: EIVMTQSPATLSVSPGERATLSCRASESVSSNVAWYQQRPGQAPRLLIYGASNRATGIPARFSGSGSGTDFTLTISRLEPEDFAVYYCGQSYSYPFTFGQGTKLEIK
notes: human kappa constant; also called MAB5(b)
- Kd [6]: 3.74 nM

B8: MAB8 (IgG1 kappa) (antibody, V domains shown)
VH: EVQLVESGGGLVQSGGSLRLSCAASGFSLSSYGVDWVRQAPGKGLEWVGVIWGGGGTYYASSLMGRFTISRDNSKNTLYLQMNSLRAEDTAVYYCARNAYGHDGGFAMDYWGQGTLVTVSS
VL: EIVMTQSPATLSVSPGERATLSCRASESVSSNVAWYQQRPGQAPRLLIYGASNRATGIPARFSGSGSGTDFTLTISRLEPEDFAVYYCGQSYSYPFTFGQGTKLEIKR
notes: MAB4 with the glycation site KH changed to RN
- binding result [4]: no binding (tested: 0.5 µg/mL or 1 µg/mL)
- binding result [5]: binds

B11: MAB2 Fab (human full-chain Fab) (Fab, V domains shown)
VH: QVQLVESGGGLVQPGGSLRLSCAASGFSLSSYGVDWVRQAPGKGLEWVGVIWGGGGTYYASSVMARFTISRDNSKNTLYLQMNSLRAEDTAVYYCAKHAYGHDGGFAMDYWGQGTLVTVSS
VL: EIVMTQSPATLSVSPGERATLSCRASESVSSNVAWYQQRPGQAPRLLIYGASNRATGIPARFSGSGSGTDFTLTISRLEPEDFAVYYCGQSYSYPFTFGQGTKLEIK
notes: human kappa constant; purified on Ni-NTA; also called MAB2(a)
- Kd [10]: 6.84 nM

Now from value to binder, other results behind:

- binding result [4]: no binding
- binding result [5]: binds
B3: MAB1 (murine monoclonal GITR agonist antibody) (antibody, V domains shown)
VH: QVQLKESGPGLVAPSQSLSITCTVSGFSLRSYGVDWVRQPPGKGLEWLGVIWGGGGTNYNSALMAKLSISKDKSKSQVFLKMNSLQTDDTAMYYCAKHAYGHDGGFAMDYWGQGTSVTVSS
VL: NIVMTQSPKSMSMSVGERVTLSCKASENVDTFVSWYQQKPDHSPKLLIYGASNRYTGVPDRFTGSGSATDFTLTISSVQAEDLADYHCGQSYSYPFTFGSGTKLEIK
notes: Mouse hybridoma antibody; also called parental mouse antibody MAB1; MAB1 parental Ab

- Kd [7]: 5.94 nM
B6: MAB6 Fab (human full-chain Fab) (Fab, V domains shown)
VH: EVQLVESGGGLVQSGGSLRLSCAASGFSLSSYGVDWVRQAPGKGLEWLGVIWGGGGTYYTSSLMARFTISRDNSKNTLYLQMNSLRAEDTAVYYCAKHAYGHDGGFAMDYWGQGTLVTVSS
VL: EIVMTQSPATLSVSPGERATLSCRASESVSSNVAWYQQRPGQAPRLLIYGASNRATGIPARFSGSGSGTDFTLTISRLEPEDFAVYYCGQSYSYPFTFGQGTKLEIK
notes: human kappa constant; also called MAB6(c)

- Kd [8]: 4.29 nM
- Kd [9]: 3.67 nM
B7: MAB7 (IgG1 kappa) (antibody, V domains shown)
VH: EVQLVESGGGLVQSGGSLRLSCAASGFSLSSYGVDWVRQAPGKGLEWVGVIWGGGGTYYASSLMGRFTISRDNSKNTLYLQMNSLRAEDTAVYYCARHAYGHDGGFAMDYWGQGTLVTVSS
VL: EIVMTQSPATLSVSPGERATLSCRASESVSSNVAWYQQRPGQAPRLLIYGASNRATGIPARFSGSGSGTDFTLTISRLEPEDFAVYYCGQSYSYPFTFGQGTKLEIKR
notes: MAB4 with the glycation site KH changed to RH
- binding result [4]: no binding (tested: not on the sheet; paragraph 336: 0.5 or 1 µg/mL)

- Kd [10]: 2.98 nM
B9: MAB3 Fab (human full-chain Fab) (Fab, V domains shown)
VH: QVQLVESGGGLVQPGGSLRLSCAASGFSLSSYGVDWVRQAPGKGLEWLGVIWGGGGTYYTASLMGRFTISRDNSKNTLYLQMNSLRAEDTAVYYCAKHAYGHDGGFAMDYWGQGTLVTVSS
VL: EIVMTQSPATLSVSPGERATLSCRASQSVSSNLAWYQQKPGQAPRLLIYGASNRATGIPDRFSGSGSGTDFTLTISRLEPEDFAVYYCGQSYSYPFTFGQGTKLEIK
notes: human kappa constant; also called MAB3(a)

- Kd [6]: 2.43 nM
B10: MAB4 Fab (human full-chain Fab) (Fab, V domains shown)
VH: EVQLVESGGGLVQSGGSLRLSCAASGFSLSSYGVDWVRQAPGKGLEWVGVIWGGGGTYYASSLMGRFTISRDNSKNTLYLQMNSLRAEDTAVYYCAKHAYGHDGGFAMDYWGQGTLVTVSS
VL: EIVMTQSPATLSVSPGERATLSCRASESVSSNVAWYQQRPGQAPRLLIYGASNRATGIPARFSGSGSGTDFTLTISRLEPEDFAVYYCGQSYSYPFTFGQGTKLEIK
notes: human kappa constant; also called MAB4(b)
